Where no end group is shown, it is not given here. [ ]: non-standard residue; d: D form.
T1: D-PIK(reversed)
T1 sequence: KRRYKYKKR

T2: D-PIK(int.)
T2 sequence: RKKYKYRRK

T3: D-PIK
T3 sequence: RKKYKYRRK


Tests used:
D-PIK(reversed) = system: T1, D-PIK(reversed)
D-PIK(int.) = system: T2, D-PIK(int.)
D-PIK = system: T3, D-PIK
[1] = target: myosin light chain kinase (215 kDa MLCK expressed by Caco-2 cells) (UniProt Q15746 1-1914, limits assumed); test: cell-based or functional assay
myosin light chain kinase (215 kDa MLCK expressed by Caco-2 cells), sequence (Q15746 whole entry): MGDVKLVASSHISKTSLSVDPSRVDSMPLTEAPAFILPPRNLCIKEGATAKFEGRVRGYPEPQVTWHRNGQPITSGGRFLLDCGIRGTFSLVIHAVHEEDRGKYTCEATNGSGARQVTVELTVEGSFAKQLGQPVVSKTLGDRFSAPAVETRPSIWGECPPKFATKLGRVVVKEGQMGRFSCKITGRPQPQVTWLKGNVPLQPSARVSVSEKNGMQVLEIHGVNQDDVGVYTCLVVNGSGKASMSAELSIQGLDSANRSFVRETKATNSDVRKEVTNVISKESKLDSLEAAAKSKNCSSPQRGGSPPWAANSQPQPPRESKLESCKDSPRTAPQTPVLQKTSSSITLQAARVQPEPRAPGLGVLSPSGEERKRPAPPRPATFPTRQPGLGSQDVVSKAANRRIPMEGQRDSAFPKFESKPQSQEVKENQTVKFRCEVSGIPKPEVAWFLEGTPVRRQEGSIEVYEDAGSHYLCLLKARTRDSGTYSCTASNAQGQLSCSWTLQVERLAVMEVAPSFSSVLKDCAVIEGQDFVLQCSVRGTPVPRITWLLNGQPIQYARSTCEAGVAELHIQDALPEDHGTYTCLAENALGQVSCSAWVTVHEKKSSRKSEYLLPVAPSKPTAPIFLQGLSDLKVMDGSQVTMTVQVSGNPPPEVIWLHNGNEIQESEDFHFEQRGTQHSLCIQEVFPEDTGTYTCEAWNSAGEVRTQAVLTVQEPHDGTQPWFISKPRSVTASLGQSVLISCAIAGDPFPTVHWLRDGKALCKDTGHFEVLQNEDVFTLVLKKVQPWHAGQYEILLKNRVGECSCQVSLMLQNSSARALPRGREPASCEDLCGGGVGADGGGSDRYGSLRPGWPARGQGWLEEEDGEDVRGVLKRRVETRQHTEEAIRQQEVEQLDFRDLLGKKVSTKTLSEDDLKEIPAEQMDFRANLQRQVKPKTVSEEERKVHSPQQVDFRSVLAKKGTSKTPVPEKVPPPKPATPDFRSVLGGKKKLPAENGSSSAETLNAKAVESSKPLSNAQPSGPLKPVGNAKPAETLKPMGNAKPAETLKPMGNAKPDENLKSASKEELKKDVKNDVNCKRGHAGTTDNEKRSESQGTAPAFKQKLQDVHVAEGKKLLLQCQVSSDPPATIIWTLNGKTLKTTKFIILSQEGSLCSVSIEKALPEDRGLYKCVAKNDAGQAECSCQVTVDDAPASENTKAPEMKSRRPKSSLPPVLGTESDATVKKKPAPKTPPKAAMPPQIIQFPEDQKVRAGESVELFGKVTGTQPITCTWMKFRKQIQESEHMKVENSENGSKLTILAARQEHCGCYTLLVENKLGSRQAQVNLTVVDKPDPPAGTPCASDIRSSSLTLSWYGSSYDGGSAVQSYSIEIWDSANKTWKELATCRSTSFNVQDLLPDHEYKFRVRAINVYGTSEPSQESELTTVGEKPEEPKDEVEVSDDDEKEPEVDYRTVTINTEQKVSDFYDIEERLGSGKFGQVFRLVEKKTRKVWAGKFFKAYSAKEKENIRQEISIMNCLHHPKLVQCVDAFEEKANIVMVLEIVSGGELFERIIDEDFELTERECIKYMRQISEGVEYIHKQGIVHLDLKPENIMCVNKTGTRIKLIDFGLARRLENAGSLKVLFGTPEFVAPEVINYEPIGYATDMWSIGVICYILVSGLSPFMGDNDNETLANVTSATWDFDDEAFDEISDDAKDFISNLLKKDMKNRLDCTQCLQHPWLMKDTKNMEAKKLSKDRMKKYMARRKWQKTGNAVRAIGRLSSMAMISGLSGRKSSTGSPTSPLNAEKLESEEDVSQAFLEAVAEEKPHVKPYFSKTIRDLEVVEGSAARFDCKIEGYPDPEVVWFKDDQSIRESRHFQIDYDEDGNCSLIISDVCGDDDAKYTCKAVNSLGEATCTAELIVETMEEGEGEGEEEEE

Δ TER (elevation in transepithelial resistance of Caco-2 monolayers, 500 µM peptide, one hour) [1] [%] | Molecule | CaMPKII activity (phosphorylation of plate-bound pseudo-substrate peptide, anti-phosphoserine ELISA) (D-PIK(reversed)) | CaMPKII activity (phosphorylation of plate-bound pseudo-substrate peptide, anti-phosphoserine ELISA) (D-PIK(int.)) | CaMPKII activity (phosphorylation of plate-bound pseudo-substrate peptide, anti-phosphoserine ELISA) (D-PIK)
50 | [dK][dR][dR][dY][dK][dY][dK][dK][dR]-NH2 [D-PIK(reversed)] | – | – | –
45 | RKKYKYRRK-NH2 (not fully specified; printed as Arg-Lys-Lys-Tyr-Lys-Tyr-Arg-Arg-Lys) [PIK (SEQ ID NO: 12)] | – | – | –

Further lines, the molecule ahead of its results:

Molecule | Δ TER (elevation in transepithelial resistance of Caco-2 monolayers, 500 µM peptide, one hour) [1] [%] | CaMPKII activity (phosphorylation of plate-bound pseudo-substrate peptide, anti-phosphoserine ELISA) (D-PIK(reversed)) | CaMPKII activity (phosphorylation of plate-bound pseudo-substrate peptide, anti-phosphoserine ELISA) (D-PIK(int.)) | CaMPKII activity (phosphorylation of plate-bound pseudo-substrate peptide, anti-phosphoserine ELISA) (D-PIK)
Calcium/calmodulin dependent protein kinase II (CaMPKII) | – | Neither D-PIK nor D-PIK(reversed) nor D-PIK(int) demonstrated striking inhibitory effects toward PKA or CaMPKII at concentrations up to 5 mM | Neither D-PIK nor D-PIK(reversed) nor D-PIK(int) demonstrated striking inhibitory effects toward PKA or CaMPKII at concentrations up to 5 mM | Neither D-PIK nor D-PIK(reversed) nor D-PIK(int) demonstrated striking inhibitory effects toward PKA or CaMPKII at concentrations up to 5 mM
RKK[dY][dK][dY]RRK-NH2 [D-PIK(int.)] | 47 | – | – | –
[dR][dK][dK][dY][dK][dY][dR][dR][dK]-NH2 [D-PIK] | 41 | – | – | –
